Reference: US7432061B2, “Assays for measuring matrix metalloproteinase activities” (BioZyme, Inc., priority 2002, dated 2008)
Primed or numbered codes have the meaning given here. The star is where a group is joined. Dabcyl″ = Dabcyl quencher at the N-terminus, CN(C)c1ccc(/N=N/c2ccc(C(=O)*)cc2)cc1; Flu = fluorescein label on the cysteine side chain; Dabcyl′ = CN(C)c1ccc(/N=N/c2ccc(C(=O)*)cc2)cc1; fluorescein = fluorescein label

Legend:
Format in all cases: biochemical
[1] = target: T1, collagenase 3 (Homo sapiens, UniProt P45452); assay: kcat/Km of fluorescence peptide substrates; conditions: for Col-3 Specificity Constant: fluorescence substrate, + Gel = PRIONEX GELATIN 1:250
[2] = target: T2, stromelysin 1 (Homo sapiens, UniProt P08254); assay: kcat/Km of fluorescence peptide substrates; conditions: for reduction of substrate selectivity for stromelysin 1 relative to FlSb1: fluorescence substrates; for Strom1 Selectivity v Col-3: fluorescence substrate, + Gel = PRIONEX GELATIN 1:250
T2 sequence (P08254 100-477): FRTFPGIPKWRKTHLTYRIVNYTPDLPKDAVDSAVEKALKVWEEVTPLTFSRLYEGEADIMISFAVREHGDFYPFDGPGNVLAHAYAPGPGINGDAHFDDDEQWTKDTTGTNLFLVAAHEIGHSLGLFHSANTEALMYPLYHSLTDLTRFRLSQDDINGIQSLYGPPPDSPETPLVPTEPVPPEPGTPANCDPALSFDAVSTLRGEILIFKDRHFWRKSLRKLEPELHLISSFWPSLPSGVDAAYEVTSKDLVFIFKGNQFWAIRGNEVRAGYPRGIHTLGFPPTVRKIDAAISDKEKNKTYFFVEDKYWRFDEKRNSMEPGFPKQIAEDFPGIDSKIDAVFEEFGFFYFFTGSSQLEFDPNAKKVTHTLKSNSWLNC

[3] = target: T1, collagenase 3; assay: Inhibition with type II collagen, FlSub3 cleavage; conditions: Time Period 0.85 to 2.10 Hours; 20 uM FlSub3 with bovine type II collagen
Protocol: In a 96 well plate, collagenase 3 (0.013 nM), collagenase 1 (1.25 nM), stromelysin 1 (0.8 nM), gelatinase A (0.025 nM), or gelatinase B (0.008 nM) were reacted with 20 uM FlSub3 in standard assay buffer in the presence of varying concentrations of bovine type II collagen (0.18-44 ug/ml). The type II collagen, a 1 mg/ml stock in 0.5M acetic acid, was transferred into assay buffer by passing the material through a biospin P6 column from Amersham. The reaction was initiated by addition of substrate to enzyme containing either buffer or an appropriate amount of type II collagen. Data points were taken every 15 min over a period of 15 hours using an excitation and emission wavelength of 350 and 485 nm respectively. The usable data (1-6 hours), was taken and the percent inhibition by type II collagen was calculated for each enzyme and plotted as a function of inhibitor concentration and time in the assay. It should be noted that the percent inhibition varies with time as the bovine substrate is consumed during the reaction course.

[4] = target: gelatinase B (Homo sapiens, UniProt P14780); assay: Cleavage of biglycan and type IV collagen by MMPs (gel); conditions: equal concentration of enzyme as col-3
gelatinase B, sequence (P14780 94-707): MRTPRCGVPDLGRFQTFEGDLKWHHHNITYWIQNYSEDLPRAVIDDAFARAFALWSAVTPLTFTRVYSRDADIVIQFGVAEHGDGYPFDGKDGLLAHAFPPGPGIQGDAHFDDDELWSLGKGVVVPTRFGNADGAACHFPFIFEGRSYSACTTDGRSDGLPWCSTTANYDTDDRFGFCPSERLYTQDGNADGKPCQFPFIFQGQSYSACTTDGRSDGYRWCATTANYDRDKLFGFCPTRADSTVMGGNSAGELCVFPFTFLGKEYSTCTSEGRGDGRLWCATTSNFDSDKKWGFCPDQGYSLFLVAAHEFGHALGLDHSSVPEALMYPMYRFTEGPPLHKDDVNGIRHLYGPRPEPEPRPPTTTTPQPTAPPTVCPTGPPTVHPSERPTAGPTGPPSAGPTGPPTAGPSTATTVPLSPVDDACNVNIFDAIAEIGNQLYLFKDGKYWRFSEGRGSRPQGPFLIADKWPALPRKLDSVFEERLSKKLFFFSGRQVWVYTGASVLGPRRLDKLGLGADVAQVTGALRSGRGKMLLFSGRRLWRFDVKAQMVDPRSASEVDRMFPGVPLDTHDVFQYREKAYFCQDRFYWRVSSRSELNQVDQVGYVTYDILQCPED
Protocol: (§1) Reactions were carried out on a small scale to optimize the enzyme to full length protein ratios. For biglycan, optimum results were obtained with a ratio of 1:100 (20-40 nM col-3 and 4.3 μM biglycan in a 10 μl reaction). For type IV collagen, best results were found with a ratio of 1:50 (28 nM col-3 and 2 μM type IV collagen). For comparison with the other MMPs, an equal concentration of enzyme was used.

[5] = target: T3, gelatinase A (Homo sapiens, UniProt P08253); assay: as above; conditions: earlier experiment
T3 sequence (P08253 110-660): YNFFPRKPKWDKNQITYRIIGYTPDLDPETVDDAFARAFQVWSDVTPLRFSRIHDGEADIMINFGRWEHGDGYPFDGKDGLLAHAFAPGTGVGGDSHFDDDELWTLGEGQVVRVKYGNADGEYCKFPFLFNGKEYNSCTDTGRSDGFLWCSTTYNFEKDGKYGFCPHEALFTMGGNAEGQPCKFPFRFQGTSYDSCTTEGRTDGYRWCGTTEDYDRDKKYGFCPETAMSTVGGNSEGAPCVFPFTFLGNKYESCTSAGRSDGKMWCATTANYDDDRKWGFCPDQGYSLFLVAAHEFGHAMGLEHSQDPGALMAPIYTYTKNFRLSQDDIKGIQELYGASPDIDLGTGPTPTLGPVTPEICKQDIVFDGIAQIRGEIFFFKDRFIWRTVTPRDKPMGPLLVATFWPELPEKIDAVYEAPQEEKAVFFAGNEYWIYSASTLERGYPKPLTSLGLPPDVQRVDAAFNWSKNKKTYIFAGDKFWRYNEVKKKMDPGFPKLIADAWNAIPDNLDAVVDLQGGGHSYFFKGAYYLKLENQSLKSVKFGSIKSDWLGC
Protocol: as §1

[6] = target: T4, collagenase 1 (Homo sapiens, UniProt P03956); assay: as above; conditions: equal concentration of enzyme as col-3
T4 sequence (P03956 100-469): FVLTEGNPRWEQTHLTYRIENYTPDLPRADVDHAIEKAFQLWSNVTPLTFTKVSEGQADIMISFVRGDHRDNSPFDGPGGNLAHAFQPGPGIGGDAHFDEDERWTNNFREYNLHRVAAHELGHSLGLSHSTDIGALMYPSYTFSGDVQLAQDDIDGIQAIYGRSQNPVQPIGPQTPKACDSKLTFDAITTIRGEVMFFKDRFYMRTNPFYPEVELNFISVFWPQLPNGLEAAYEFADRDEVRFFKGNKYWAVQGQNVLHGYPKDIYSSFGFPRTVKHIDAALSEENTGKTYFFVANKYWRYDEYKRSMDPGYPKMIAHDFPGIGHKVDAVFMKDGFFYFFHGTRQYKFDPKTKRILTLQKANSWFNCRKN
Protocol: as §1

[7] = target: T2, stromelysin 1; assay: as above; conditions: equal concentration of enzyme as col-3
Protocol: as §1

Dab-SYPSGIHLC(Flu)LQR-NH2 ({Dabcyl″}-SYPSGIHLC(Flu)LQR-NH2) [FlSb2, fluorescence substrate based on the sulfate transporter]
less sensitive for collagenase 3 compared to the consensus substrate ([1]; compared to FlSb1): 100 fold | selectivity compared to FlSb1 ([1]; kcat/Km against the five MMPs): less selective

Dabcyl-GPHPFRGC(Flu)-NH2 ({Dabcyl″}-GPHPFRGC(Flu)-NH2) [FISb4]
reduction of substrate selectivity for stromelysin 1 relative to FlSb1 [2]: approximately 10 fold | Col-3 Specificity Constant [1]: 3.27E+04 1/sM

Dabcyl-GPLGMRGC(Fluorescein)-NH2 ({Dabcyl′}-GPLGMRGC(fluorescein)-NH2) [FISb1]
Strom1 Selectivity v Col-3 [2]: 707.5 unitless | Strom1 Selectivity v Col-3 ([2]; listed as Fluorescence Substrate 1): 3665 unitless

Dabcyl-GPVNLHGC(Flu)-NH2 ({Dabcyl″}-GPVNLHGC(Flu)-NH2) [FISb3]
reduction of substrate selectivity for stromelysin 1 relative to FlSb1 [2]: approximately 10 fold | Col-3 Specificity Constant [3]: 1.11E+06 1/sM | Col-3 Specificity Constant [1]: 4.21E+05 1/sM

type IV collagen: full length protein digested with collagenase 3 and other MMPs
cleavage of full length protein by gelatinase B [4]: processed | cleavage of full length protein by gelatinase A [5]: No detectable cleavage | cleavage of full length protein by collagenase 1 [6]: processed

B1: biglycan: proteoglycan, full length protein digested with collagenase 3 and other MMPs (protein, UniProt P21810 38-368, looked up)
Biglycan: DEEASGADTSGVLDPDSVTPTYSAMCPFGCHCHLRVVQCSDLGLKSVPKEISPDTTLLDLQNNDISELRKDDFKGLQHLYALVLVNNKISKIHEKAFSPLRKLQKLYISKNHLVEIPPNLPSSLVELRIHDNRIRKVPKGVFSGLRNMNCIEMGGNPLENSGFEPGAFDGLKLNYLRISEAKLTGIPKDLPETLNELHLDHNKIQAIELEDLLRYSKLYRLGLGHNQIRMIENGSLSFLPTLRELHLDNNKLARVPSGLPDLKLLQVVYLHSNNITKVGVNDFCPMGFGVKRAYYNGISLFNNPVPYWEVQPATFRCVTDRLAIQFGNYKK
cleavage of full length protein by gelatinase B [4]: able to degrade | cleavage of full length protein by stromelysin 1 [7]: able to degrade
